In patent US20180030149A1 (AVEO PHARMACEUTICALS, published 2018):
Read-outs that look alike come from different tables or passages of the source.

How the values were obtained:
[1] = target: T1, recombinant human ErbB3/Fc fusion protein (human, UniProt P21860 20-643); experiment: ECL competition; inhibition of NRG1-β1 binding to plate-coated rhErbB3/Fc
T1 construct: Bought (R&D Systems, Cat. No. 348-RB); the NRG1-α1 assay names Cat. No. 4518-RB instead; also called rhErbB3-Fc; rhErbB3/Fc; not shown: Fc portion of the bought fusion protein
Protocol: (§1) Multi-array 96-well standard binding plates (Meso Scale Discovery, Cat. No. L15XA-3) were coated with 50 μl of 0.5 μg/mL rhErbB3/Fc (R&D systems, Cat. No. 348-RB) in PBS (Invitrogen, Cat. No. 14040-133) for one hour at room temperature with no agitation. The plates then were washed three times with PBS+0.1% Tween20 (Sigma P5927) and blocked with 200 μl of 100% Horse Serum, heat inactivated (GIBCO, Cat. No. 26050-088) for 1.5 hours at room temperature. After washing the plates three times with PBS+0.1% Tween, 25 μl of the antibody dilutions were added to the plates for another hour at room temperature with agitation. […] The plates then were washed three times with PBS+0.1% Tween, and 150 μl of 1× read buffer (Meso Scale Discovery, Cat. No. R92TC-1) was added to each well before the plates were analyzed on a Sector® Imager 2400 (Meso Scale Discovery) instrument.

[2] = target: T1, recombinant human ErbB3/Fc fusion …; experiment: ECL (MSD) competition: rhErbB3/Fc coated on the plate, antibody dilutions, then NRG1-β1 at 0.25 µg/ml; bound NRG1-β1 detected
[3] = target: T2, human ErbB3 (human, UniProt P21860 20-1342); experiment: cell-based or functional assay
[4] = target: T2, human ErbB3; experiment: cell-based or functional assay; remark: listed apart in the source
[5] = target: T1, recombinant human ErbB3/Fc fusion …; experiment: SPR Biacore T100, 25 C; antibody captured on anti-mouse IgG, rhErbB3-Fc injected
Protocol: Rabbit anti-mouse IgGs (Biacore, Cat. No. BR-1008-38) were immobilized on carboxymethylated dextran CM4 sensor chips (Biacore, Cat. No. BR-1005-34) by amine coupling (BIAcore, Cat. No. BR-1000-50) using a standard coupling protocol according to vendor's instructions. The analyses were performed at 25° C., using PBS (Invitrogen, Cat. No. 14040-133) containing 0.05% surfactant P20 (Biacore, Cat. No. BR-1000-54) as running buffer.
The antibodies were captured in individual flow cells at a flow rate of 10 μl/minute. Injection time was varied for each antibody to yield an Rₘₐₓ between 30 and 60 RU. […] The dissociation phase was monitored for up to 3600 seconds. The surface was then regenerated with two 60-seconds injection of 10 mM Glycine-HCl, pH 1.7 (made from Glycine pH 1.5 (Biacore, Cat. No. BR-1003-54) and pH 2.0 (Biacore, Cat. No. BR-1003-55)) at a flow rate of […].
Kinetic parameters were determined using the kinetic function of the BIAevaluation software (Biacore) with double reference subtraction. Kinetic parameters for each antibody, kₐ (association rate constant), kd (dissociation rate constant) and KD (equilibrium dissociation constant) were determined.

[6] = target: T1, recombinant human ErbB3/Fc fusion …; experiment: ECL (MSD): NRG1-β1 (0.25 µg/ml) binding to plate-coated rhErbB3/Fc after antibody dilutions; the antibody enhances the NRG1-β1 signal
Protocol: MA2400 96-well standard binding plates (Meso Scale Discovery, Cat. No. L15XA-6) were coated with 50 μl of 0.5 μg/mL rhErbB3/Fc (R&D systems, Cat. No. 348-RB) in PBS (Invitrogen, Cat. No. 14040-133) for overnight at 4° C. with no agitation. The plates then were washed 3 times with PBS+0.1% Tween20 (Sigma P5927) and blocked with 200 μl of PBS containing 5% BSA (Sera Care Life Sciences, Cat. No. AP-4510-80) for 1.5 hour at room temperature. After washing the plates 3 times with PBS, 25 μl of the antibody dilutions were added to the plates for another hour at room temperature with agitation. […] The plates then were washed 3 times with PBS, and 150 μl of 1× read buffer (Meso Scale Discovery, Cat. No. R92TC-1) was added to each well before the plates were analyzed on a Sector® Imager 2400 (Meso Scale Discovery) instrument.

[7] = target: T3, recombinant human ErbB3 monomeric protein (cleaved rhErbB3) (human, UniProt P21860 20-643, limits assumed); experiment: SPR Biacore 37 C; antibody captured on anti-human Fc, cleaved rhErbB3 (monomer) injected
T3 construct: Monomer made by protease cleavage of the Fc fusion; also called Monomeric ErbB3

[8] = target: T3, recombinant human ErbB3 monomeric …; experiment: SPR Biacore 37 C; purified antibody captured on anti-human Fc, cleaved rhErbB3 0.3125-5.0 nM
Protocol: The analyses were performed at 37° C. using PBS (Invitrogen, Catalog No. 14040-133) containing 0.05% surfactant P20 (Biacore, Catalog No. BR-1000-54) as running buffer.
The antibodies were captured in individual flow cells at a flow rate of […]. Injection time was varied for each antibody to yield an Rₘₐₓ between 30 and 60 RU. […] The dissociation phase was monitored for up to 1200 seconds. The surface was then regenerated with two 60 second injections of Glycine pH 2.25 (made from Glycine pH 2.0 (Biacore, Catalog No. BR-1003-55) and pH 2.5 (Biacore, Catalog No. BR-1003-56)) at […].
The binding affinities and kinetics of certain purified monoclonal antibodies were also determined. To further characterize certain antibodies, the surface plasmon resonance experiments described above were conducted using concentrations of cleaved rhErbB3 between 0.3125 nM and 5.0 nM (a 2-fold serial dilution).

[9] = target: T1, recombinant human ErbB3/Fc fusion …; experiment: ECL (MSD) competition: rhErbB3/Fc coated on the plate, antibody dilutions, then NRG1-β1 at 0.25 µg/ml; bound NRG1-β1 detected; remark: listed apart in the source
Protocol: as §1

| IC50 [1] [pM] | IC50 (read off the curve) [2] [pM] | inhibition of NRG1-β1 induced phosphorylation of Akt in MCF7 and DU145 cells (ELISA) [3] [%] | inhibition of NRG1-β1 induced phosphorylation of ErbB3 in SKBR-3 cells (ELISA, 5 µg/ml antibody) [3] [%] | IC50, NRG1-β1 dependent proliferation of MCF7 cells (MTT) [4] [pM] | Kd [5] [pM] | koff [5] [s⁻¹] | kon [5] [M⁻¹ s⁻¹] | EC50 (read off the curve) [6] [pM] | inhibition of phosphorylation of ErbB3 in exponentially growing SKBR-3 cells (ELISA) [3] [%] | Kd [7] [pM] | koff [7] [s⁻¹] | kon [7] [M⁻¹ s⁻¹] | Kd [8] [pM] | koff [8] [s⁻¹] | kon [8] [M⁻¹ s⁻¹] | IC50 (read off the curve) [9] [pM] | Binder |
| --- | --- | --- | --- | --- | --- | --- | --- | --- | --- | --- | --- | --- | --- | --- | --- | --- | --- |
| 113 | ~100 |  |  |  |  |  |  |  |  |  |  |  |  |  |  |  | U1-53 (antibody, V domains shown) VH: EVQLVESGGGLVQPGGSLRLSCAASGFTFSIYSMNWVRQAPGKGLEWVSYISSSSSTIYYADSVKGRFTISRDNAKNSLYLQMNSLRDEDTAVYYCARDRGDFDAFDIWGQGTMVTVSS VL: DIQMTQSPSSLSASVGDRVTITCQASQDITNYLNWYQQKPGKAPKLLIYDASNLETGVPSRFSGSGSGTDFTFTISSLQPEDIATYNCQQCENFPITFGQGTRLEIK |
|  |  | ≥ 80 | ≥ 50 | 2280 | 80 | 2e-05 | 270000 | ~1000 |  |  |  |  |  |  |  |  | 09D03 (antibody, mouse IgG2b, kappa, V domains shown, Murine IgG2b/kappa, from hybridoma; also called anti-hErbB3 monoclonal antibody 09D03) VH: QVTLKESGPGILRPSQTLSLTCSFSGFSLSTFGLSVGWIRQPSGKGLEWLAHIWWDDDKYYNPALKSRLTISKDTSKNQVFLKIANVDTADTATYYCARIGADALPFDYWGQGTTLTVSS VL: DIVLTQTAPSVPVTPGESVSISCRSSKSLLHSNGNTYLYWFLQRPGQSPQLLIYRMSNLASGVPDRFSGSGSGTAFTLRISRVEAEDVGVYYCMQHLEYPFTFGSGTKLEIKR |
| 124 |  |  |  |  |  |  |  |  | ≥ 50 | 76 | 0.00027 | 3.5e+06 | 76 | 0.00027 | 3.5e+06 | ~100 | Sh24C05-31 N62S IgG1 (antibody, Humanized, human IgG1/kappa) heavy: not shown light: DIQMTQSPSSLSASVGDRVTITCRASQEISGYLSWYQQKPGKAPKRLIYAASTLDSGVPSRFSGSGSGTEFTLTISSLQPEDFATYYCLQYDSYPYTFGQGTKLEIKRTVAAPSVFIFPPSDEQLKSGTASVVCLLNNFYPREAKVQWKVDNALQSGNSQESVTEQDSKDSTYSLSSTLTLSKADYEKHKVYACEVTHQGLSSPVTKSFNRGEC |
